Measured values as given in PMC10651859, “Aptamer-based gold nanoparticle aggregates for ultrasensitive amplification-free detection of PSMA”.

What was measured:
[1] = target: T1, hrPSMA (human recombinant Prostate Specific Membrane Antigen, Sinobiological) (human, UniProt Q04609 44-750); assay: AuNP aggregate disassembly (DLS size and count rate, plasmon shift); size change significant above 50 pM, count rate from 500 fM; detection thresholds, not Kd; 1x PBS pH 7.4; 37 C for 30 min stated for the initial 50 pM hrPSMA screening; details: protein: commercial; chain copies: 2; label: 13 nm gold nanoparticles on Rev1 and Rev2; aPSMA 1-16 paired with Rev1, 17-30 with Rev2; 3' aptamer portion single-stranded; many copies per aggregate
[2] = target: PSMA on intact LNCaP SEVs (human? (LNCaP cells), UniProt Q04609 1-750); assay: AuNP aggregate disassembly (plasmon peak shift); intact SEVs; 1x PBS pH 7.4; 37 C for 30 min stated for the initial 50 pM hrPSMA screening; details: protein: native; chain copies: 2; label: 13 nm gold nanoparticles on Rev1 and Rev2; Control 1-16 paired with Rev1, 17-30 with Rev2; 3' portion single-stranded; many copies per aggregate
[3] = target: T1, hrPSMA (human recombinant Prostate …); assay: AuNP aggregate disassembly (DLS); hrPSMA series; no significant trend; 1x PBS pH 7.4; 37 C for 30 min stated for the initial 50 pM hrPSMA screening; details: protein: commercial; chain copies: 2; label: 13 nm gold nanoparticles on Rev1 and Rev2; Control 1-16 paired with Rev1, 17-30 with Rev2; 3' portion single-stranded; many copies per aggregate

T1 sequence (Q04609 44-750): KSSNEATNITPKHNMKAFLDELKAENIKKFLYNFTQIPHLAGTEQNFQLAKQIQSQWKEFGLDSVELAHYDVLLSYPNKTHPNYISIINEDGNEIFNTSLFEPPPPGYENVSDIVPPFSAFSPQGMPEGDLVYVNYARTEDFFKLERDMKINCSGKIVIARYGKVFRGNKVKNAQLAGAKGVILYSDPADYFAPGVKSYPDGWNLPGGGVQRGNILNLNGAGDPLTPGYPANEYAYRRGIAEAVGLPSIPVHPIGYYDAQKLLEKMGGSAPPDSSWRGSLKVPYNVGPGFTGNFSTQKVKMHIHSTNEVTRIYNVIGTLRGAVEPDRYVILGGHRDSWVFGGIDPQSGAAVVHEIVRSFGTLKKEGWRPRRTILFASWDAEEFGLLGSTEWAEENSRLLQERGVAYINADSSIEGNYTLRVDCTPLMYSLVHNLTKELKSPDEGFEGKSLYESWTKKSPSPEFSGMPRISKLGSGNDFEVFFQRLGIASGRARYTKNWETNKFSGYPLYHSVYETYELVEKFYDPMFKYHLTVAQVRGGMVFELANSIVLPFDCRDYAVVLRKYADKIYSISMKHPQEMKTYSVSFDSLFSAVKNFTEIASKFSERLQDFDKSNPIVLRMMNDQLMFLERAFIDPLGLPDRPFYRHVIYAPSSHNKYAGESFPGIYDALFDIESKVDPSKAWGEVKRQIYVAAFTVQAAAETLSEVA
Sequence of PSMA on intact LNCaP SEVs (Q04609 whole entry): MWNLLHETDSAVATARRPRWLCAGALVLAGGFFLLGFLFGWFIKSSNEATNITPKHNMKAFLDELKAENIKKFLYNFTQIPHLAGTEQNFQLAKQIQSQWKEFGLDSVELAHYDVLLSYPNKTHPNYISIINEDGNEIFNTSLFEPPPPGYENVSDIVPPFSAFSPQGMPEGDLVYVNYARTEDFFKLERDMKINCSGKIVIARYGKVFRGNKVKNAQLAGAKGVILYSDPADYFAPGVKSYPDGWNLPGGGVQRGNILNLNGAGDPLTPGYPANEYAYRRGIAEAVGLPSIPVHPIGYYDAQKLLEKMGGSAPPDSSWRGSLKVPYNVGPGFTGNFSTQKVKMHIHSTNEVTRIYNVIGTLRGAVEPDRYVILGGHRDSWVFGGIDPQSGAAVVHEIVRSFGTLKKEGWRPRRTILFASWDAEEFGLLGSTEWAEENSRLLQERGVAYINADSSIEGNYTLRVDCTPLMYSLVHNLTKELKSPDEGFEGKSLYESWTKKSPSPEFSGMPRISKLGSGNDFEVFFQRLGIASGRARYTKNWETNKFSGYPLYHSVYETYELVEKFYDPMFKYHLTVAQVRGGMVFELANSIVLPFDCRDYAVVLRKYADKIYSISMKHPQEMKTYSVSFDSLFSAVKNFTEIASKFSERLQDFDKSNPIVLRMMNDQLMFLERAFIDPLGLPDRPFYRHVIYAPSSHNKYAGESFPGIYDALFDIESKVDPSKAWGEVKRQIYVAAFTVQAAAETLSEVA

B1: aPSMA:Rev1:Rev2 (aPSMA-AuNPs-Aggregate) (structured_DNA)
DNA 1: CTGTGACTCATCTGTGAAGGGCGGCGTTTTCGCTTTTGCGTTTTGGGTCATCTGCTTACGATAGCAATGCT
DNA 2: CACAGATGAGTCACAG
DNA 3: AAAACGCCGCCCTT
modifications: Rev1 3' C3 thiol; Rev2 5' C6 thiol
binding result [1]: binds

B2: Control:Rev1:Rev2 (C-AuNPs-Aggregate) (structured_DNA)
DNA 1: CTGTGACTCATCTGTGAAGGGCGGCGTTTTATATGTTACCGTCTAAGTACTCTGTTCCGCGCCGTGTGTTG
DNA 2: CACAGATGAGTCACAG
DNA 3: AAAACGCCGCCCTT
modifications: Rev1 3' C3 thiol; Rev2 5' C6 thiol
binding result [2]: no binding
binding result [3]: no binding
